Data published in PMC4233993, “Comparison of three tannases cloned from closely related lactobacillus species: L. Plantarum, L. Paraplantarum, and L. Pentosus” (BMC Microbiology, 2014).

Experiments:
Assay in all cases: HPLC of reaction products, Hanes-Woolf plot
Conditions in all cases: 50 mM Tris-HCl pH 8.0, 37°C, 33 nM enzyme
[1] = system: T1, COc1cc(C(=O)O[C@@H]2Cc3c(O)cc(O)cc3O[C@@H]2c2cc(O)c(O)c(O)c2)cc(O)c1O; assay type: biochemical, Lactiplantibacillus paraplantarum
T1 construct: full ORF (1410 bp, 469 residues, 50,708 Da), C-terminal His tag, fused to YbdK signal peptide in pBE-S, expressed in Bacillus subtilis RIK 1285, purified from cells
Text: (§1) HPLC of reaction products, Hanes-Woolf plot on TanLpa

COC(=O)c1cc(O)c(O)c(O)c1 [2] = system: T2, COC(=O)c1cc(O)c(O)c(O)c1; assay type: biochemical, Lactiplantibacillus paraplantarum
T2 construct: full ORF (1410 bp, 469 residues, 50,708 Da), C-terminal His tag, fused to YbdK signal peptide in pBE-S, expressed in Bacillus subtilis RIK 1285, purified from cells
Text: as §1

[3] = system: T3, O=C(O[C@@H]1Cc2c(O)cc(O)cc2O[C@@H]1c1ccc(O)c(O)c1)c1cc(O)c(O)c(O)c1; assay type: biochemical, Lactiplantibacillus paraplantarum
T3 construct: full ORF (1410 bp, 469 residues, 50,708 Da), C-terminal His tag, fused to YbdK signal peptide in pBE-S, expressed in Bacillus subtilis RIK 1285, purified from cells
Text: as §1

[4] = system: T4, O=C(O[C@@H]1Cc2c(O)cc(O)cc2O[C@@H]1c1cc(O)c(O)c(O)c1)c1cc(O)c(O)c(O)c1; assay type: biochemical, Lactiplantibacillus paraplantarum
T4 construct: full ORF (1410 bp, 469 residues, 50,708 Da), C-terminal His tag, fused to YbdK signal peptide in pBE-S, expressed in Bacillus subtilis RIK 1285, purified from cells
Text: as §1

[5] = system: T5, O=C(O[C@@H]1Cc2c(O)cc(O)cc2O[C@H]1c1ccc(O)c(O)c1)c1cc(O)c(O)c(O)c1; assay type: biochemical, Lactiplantibacillus paraplantarum
T5 construct: full ORF (1410 bp, 469 residues, 50,708 Da), C-terminal His tag, fused to YbdK signal peptide in pBE-S, expressed in Bacillus subtilis RIK 1285, purified from cells
Text: as §1

[6] = system: T6, O=C(O[C@@H]1Cc2c(O)cc(O)cc2O[C@H]1c1cc(O)c(O)c(O)c1)c1cc(O)c(O)c(O)c1; assay type: biochemical, Lactiplantibacillus paraplantarum
T6 construct: full ORF (1410 bp, 469 residues, 50,708 Da), C-terminal His tag, fused to YbdK signal peptide in pBE-S, expressed in Bacillus subtilis RIK 1285, purified from cells
Text: as §1

[7] = system: T7, O=C(O[C@@H]1Cc2c(O)cc(O)cc2O[C@@H]1c1cc(O)c(O)c(O)c1)c1cc(O)c(O)c(O)c1; assay type: biochemical, Lactiplantibacillus pentosus
T7 construct: full ORF (1413 bp, 470 residues, 51,193 Da), C-terminal His tag, fused to YbdK signal peptide in pBE-S, expressed in Bacillus subtilis RIK 1285, purified from cells
Text: (§2) HPLC of reaction products, Hanes-Woolf plot on TanLpe

[8] = system: T8, O=C(O[C@@H]1Cc2c(O)cc(O)cc2O[C@H]1c1cc(O)c(O)c(O)c1)c1cc(O)c(O)c(O)c1; assay type: biochemical, Lactiplantibacillus pentosus
T8 construct: full ORF (1413 bp, 470 residues, 51,193 Da), C-terminal His tag, fused to YbdK signal peptide in pBE-S, expressed in Bacillus subtilis RIK 1285, purified from cells
Text: as §2

COC(=O)c1cc(O)c(O)c(O)c1 [9] = system: T9, COC(=O)c1cc(O)c(O)c(O)c1; assay type: biochemical, Lactiplantibacillus pentosus
T9 construct: full ORF (1413 bp, 470 residues, 51,193 Da), C-terminal His tag, fused to YbdK signal peptide in pBE-S, expressed in Bacillus subtilis RIK 1285, purified from cells
Text: as §2

[10] = system: T10, O=C(O[C@@H]1Cc2c(O)cc(O)cc2O[C@@H]1c1ccc(O)c(O)c1)c1cc(O)c(O)c(O)c1; assay type: biochemical, Lactiplantibacillus pentosus
T10 construct: full ORF (1413 bp, 470 residues, 51,193 Da), C-terminal His tag, fused to YbdK signal peptide in pBE-S, expressed in Bacillus subtilis RIK 1285, purified from cells
Text: as §2

[11] = system: T11, O=C(O[C@@H]1Cc2c(O)cc(O)cc2O[C@H]1c1ccc(O)c(O)c1)c1cc(O)c(O)c(O)c1; assay type: biochemical, Lactiplantibacillus pentosus
T11 construct: full ORF (1413 bp, 470 residues, 51,193 Da), C-terminal His tag, fused to YbdK signal peptide in pBE-S, expressed in Bacillus subtilis RIK 1285, purified from cells
Text: as §2

[12] = system: T12, COc1cc(C(=O)O[C@@H]2Cc3c(O)cc(O)cc3O[C@@H]2c2cc(O)c(O)c(O)c2)cc(O)c1O; assay type: biochemical, Lactiplantibacillus pentosus
T12 construct: full ORF (1413 bp, 470 residues, 51,193 Da), C-terminal His tag, fused to YbdK signal peptide in pBE-S, expressed in Bacillus subtilis RIK 1285, purified from cells
Text: as §2

[13] = substrate: O=C(O[C@@H]1Cc2c(O)cc(O)cc2O[C@H]1c1cc(O)c(O)c(O)c1)c1cc(O)c(O)c(O)c1; assay type: biochemical, Lactiplantibacillus plantarum
Text: (§3) HPLC of reaction products, Hanes-Woolf plot on TanLpl

[14] = substrate: COC(=O)c1cc(O)c(O)c(O)c1; assay type: biochemical, Lactiplantibacillus plantarum
Text: as §3

[15] = substrate: O=C(O[C@@H]1Cc2c(O)cc(O)cc2O[C@H]1c1ccc(O)c(O)c1)c1cc(O)c(O)c(O)c1; assay type: biochemical, Lactiplantibacillus plantarum
Text: as §3

[16] = substrate: O=C(O[C@@H]1Cc2c(O)cc(O)cc2O[C@@H]1c1ccc(O)c(O)c1)c1cc(O)c(O)c(O)c1; assay type: biochemical, Lactiplantibacillus plantarum
Text: as §3

[17] = substrate: O=C(O[C@@H]1Cc2c(O)cc(O)cc2O[C@@H]1c1cc(O)c(O)c(O)c1)c1cc(O)c(O)c(O)c1; assay type: biochemical, Lactiplantibacillus plantarum
Text: as §3

[18] = substrate: COc1cc(C(=O)O[C@@H]2Cc3c(O)cc(O)cc3O[C@@H]2c2cc(O)c(O)c(O)c2)cc(O)c1O; assay type: biochemical, Lactiplantibacillus plantarum
Text: as §3

“TanLpa (Lactiplantibacillus paraplantarum)” was tested, and the Km [1] was 40 ± 4 µM, the kcat [1] was 0.35 ± 0.07 s⁻¹ and the kcat/Km [1] was 9020 ± 2280 M⁻¹ s⁻¹. The Km (COC(=O)c1cc(O)c(O)c(O)c1 [2]) was 500 ± 60 µM, the kcat (COC(=O)c1cc(O)c(O)c(O)c1 [2]) was 72.73 ± 3.34 s⁻¹ and the kcat/Km (COC(=O)c1cc(O)c(O)c(O)c1 [2]) was 145000 ± 10600 M⁻¹ s⁻¹. It also gave a Km [3] of 60 ± 10 µM, a kcat [3] of 11.08 ± 0.44 s⁻¹ and a kcat/Km [3] of 195000 ± 21500 M⁻¹ s⁻¹. It also gave a Km [4] of 60 ± 10 µM, a kcat [4] of 14.29 ± 0.82 s⁻¹ and a kcat/Km [4] of 261000 ± 46500 M⁻¹ s⁻¹. The Km [5] was 50 ± 5 µM, the kcat [5] was 8.1 ± 0.04 s⁻¹ and the kcat/Km [5] was 182000 ± 27700 M⁻¹ s⁻¹. It also gave a Km [6] of 60 ± 2 µM, a kcat [6] of 9.2 ± 0.09 s⁻¹ and a kcat/Km [6] of 155000 ± 7970 M⁻¹ s⁻¹.

Molecule TanLpe (Lactiplantibacillus pentosus) has a Km [7] of 60 ± 20 µM, a kcat [7] of 0.44 ± 0.02 s⁻¹ and a kcat/Km [7] of 7250 ± 2510 M⁻¹ s⁻¹. The Km [8] was 70 ± 2 µM, the kcat [8] was 1.12 ± 0.13 s⁻¹ and the kcat/Km [8] was 14300 ± 1950 M⁻¹ s⁻¹. It also gave a Km (COC(=O)c1cc(O)c(O)c(O)c1 [9]) of 870 ± 410 µM, a kcat (COC(=O)c1cc(O)c(O)c(O)c1 [9]) of 15.95 ± 3.13 s⁻¹ and a kcat/Km (COC(=O)c1cc(O)c(O)c(O)c1 [9]) of 18800 ± 3080 M⁻¹ s⁻¹. It also gave a Km [10] of 50 ± 10 µM, a kcat [10] of 0.42 ± 0.03 s⁻¹ and a kcat/Km [10] of 8630 ± 1170 M⁻¹ s⁻¹. For the same molecule, the Km [11] was 80 ± 4 µM, the kcat [11] was 1.48 ± 0.11 s⁻¹ and the kcat/Km [11] was 19200 ± 2360 M⁻¹ s⁻¹. The Km [12] was 5 ± 0.9 µM, the kcat [12] was 0.06 ± 0.02 s⁻¹ and the kcat/Km [12] was 10600 ± 1330 M⁻¹ s⁻¹.

B1: TanLpl (Lactiplantibacillus plantarum) (protein)
chain: MSNRLIFDADWLVPEQVQVAGQAIQYYAARNIQYVQHPVAAIQVLNVFVPAAYLHGSSVNGYQRATAPILMPNTVGGYLPGPADDPQRVTWPTNAGTIQQALKRGYVVVAAGIRGRTTVDKSGQRVGQAPAFIVDMKAAIRYVKYNQGRLPGDANRIITNGTSAGGATSALAGASGNSAYFEPALTALGAAPATDDIFAVSAYCPIHNLEHADMAYEWQFNGINDWHRYQPVAGTTKNGRPKFEPVSGQLTVEEQALSLALKAQFSTYLNQLKLTASDGTHLTLNEAGMGSFRDVVRQLLISSAQTAFDQGTDIHKYAGFVVTGNQVTDLDLSAYLKSLTRMKAVPAFDQLDLTSPENNLFGDATAKAKHFTALAQTRSTVTAQLADAELIQAINPLSYLTTTSSQVAKHWRIRHGAADRDTSFAIPIILAIMLENHGYGIDFALPWDIPHSGDYDLGDLFSWIDGLCQ
notes: full ORF (469 residues, ~50 kDa), C-terminal His tag, fused to YbdK signal peptide in pBE-S, expressed in Bacillus subtilis RIK 1285, purified from cells
B1 showed a Km [13] of 30 ± 8 µM, a kcat [13] of 0.89 ± 0.044 s⁻¹ and a kcat/Km [13] of 27200 ± 6280 M⁻¹ s⁻¹. It also gave a Km [14] of 370 ± 40 µM, a kcat [14] of 46.02 ± 0.87 s⁻¹ and a kcat/Km [14] of 125000 ± 15400 M⁻¹ s⁻¹. For the same molecule, the Km [15] was 50 ± 2 µM, the kcat [15] was 2.41 ± 0.10 s⁻¹ and the kcat/Km [15] was 53600 ± 4620 M⁻¹ s⁻¹. The Km [16] was 30 ± 20 µM, the kcat [16] was 1.49 ± 0.19 s⁻¹ and the kcat/Km [16] was 52200 ± 25600 M⁻¹ s⁻¹. For the same molecule, the Km [17] was 100 ± 10 µM, the kcat [17] was 1.12 ± 0.03 s⁻¹ and the kcat/Km [17] was 11700 ± 1290 M⁻¹ s⁻¹. The Km [18] was 40 ± 9 µM, the kcat [18] was 0.26 ± 0.04 s⁻¹ and the kcat/Km [18] was 6040 ± 570 M⁻¹ s⁻¹.
